Laboratory results reported in paper PMC9323955, “Synthesis and Evaluation of Small Molecule Drug Conjugates Harnessing Thioester-Linked Maytansinoids” (Pharmaceutics, 2022).
“Also recorded” adds a separate entry of the source.

Tests used:
[1] = Plasma stability, 24 h incubation with plasma (HPLC); format: in vitro ADME
Description: Zn8_DM1: 0H VS. 24H in plasma.
Zn10_DM4: 0H VS. 24H in plasma.
Supporting Figure S1. Incubation of Linker-drug 3 and 4, conjugates Zn8_DM1 and
Zn10_DM4, DM1 and DM4 with plasma for 24 hrs. HPLC condition is listed below. […]

[2] = Pharmacokinetic study, single intravenous dose; format: in vivo, male ICR mice
Description: Six-week-old male ICR mice from BioLASCO Taiwan were divided into three groups and administered intravenously at a 5 mg/kg dose. Blood samples were taken from each animal at time points 0.003, 0.083, 0.25, 0.5, 1, 2, 4, 6, 8, and 24 h and stored on ice (0–4 °C). The plasma was separated from the blood by centrifugation (in a Beckman Allegra 6R at 3000 rpm, 4 °C for 15 min) and stored under freezing conditions (−20 °C). Plasma and harvested tumor samples were stored at −80 °C until use. Fifty microliters of mouse plasma or tumor samples homogenized with ddH2O at a dilution ratio of 1:3 (w/v) with MiniBeadbeater-16 (BioSpec Products Inc., Bartlesville, OK, USA) were mixed with 100 μL of acetonitrile containing 250 ng/mL BPR0L187. The mixture was vortexed for 30 s and then centrifuged at 15,000× g for 20 min. The supernatant was transferred to a clean test tube, and 15 µL of supernatant was injected into the LC/MS/MS. Plasma samples were analyzed by liquid chromatography-tandem mass spectrometry (LC/MS/MS). The chromatography system was an Agilent 1200 series liquid chromatography system and an Agilent ZORBAX Eclipse XDB-C8 column (5 µm, 3.0 × 150 mm) connected with an MDS Sciex API4000 tandem mass spectrometer equipped with an ESI in forwarding scan mode at 600 °C. Data acquisition was performed by multiple reaction monitoring (MRM). A gradient system was used to separate the analytes from the IS. Mobile phase A was a 10 mM aqueous ammonium acetate solution containing 0.1% formic acid. Mobile phase B was acetonitrile. The gradient profile was as follows. 0.0–1.1 min, 50% B; 1.2–3.7 min, 55% B-90% B; 3.8–5.0 min, 90% B-50% B. The flow rate was 1.5 mL/min. The autosampler was set to inject 15 µL of the sample every 5 min.

[3] = tested on: HCC1806 human triple-negative breast cancer tumors; assay: HCC1806 xenograft tumor efficacy; format: in vivo, female nude mice
Description: Cancer cells suspended in RPMI 1640 medium (11835-030, Thermo Fisher Scientific, Waltham, MA, USA) were mixed with Matrigel™ (356237, BD Biosciences, Franklin Lakes, NJ, USA) in a 1:1 ratio. Human triple-negative breast cancer HCC1806 (1 × 10^6 cells) cells were inoculated subcutaneously into the left flank of 6-week-old female nude mice (BioLASCO Taiwan, Taipei, Taiwan) using a 1 mL syringe with a 24G needle (AN-2425R, Terumo Medical Corp., Tokyo, Japan). Tumor dimensions were measured twice weekly using electronic calipers (FOW54-200-777, PRO-MAX), and the volume of tumor grown subcutaneously (mm^3) was calculated by the formula Volume = (length × width^2)/2. A combination of 10% DMA/20% Cremophor EL/70% 5% dextrose injection (D5W) was formulated to treat HCC1806 xenograft tumors. Mice with HCC1806 tumors were grouped and administered the indicated dosing regimen of 1 mg/kg for the conjugate and 0.3 mg/kg for the cytotoxic payloads DM1 and DM4 twice-weekly (day 1 and day 4) for 2 weeks when the mean tumor volume was approximately 200–250 mm^3 or 850–900 mm^3 (large tumors). The conjugate dose of 2 mg/kg was administered weekly for the large tumor study. The body weight and tumor volume of mice were measured twice weekly. In addition, a previously reported oncogene-induced, sorafenib-resistant HCC mouse model was used in the current study to examine the antitumor activities of synthesized compounds. Briefly, plasmids including transposase (pCMV(CAT)T7-SB100), human Akt1, and luciferase (pKT2/CLP-AKT-2A-OVA-HBc-HBs-LUC) and the N-Ras V12 mutant (pT/Caggs-NRASV12) were hydrodynamically injected (HDI) and the liver was monitored for the appearance of HCC. HCC mice with a total flux of more than 1 × 10^9 photons/s from IVIS imaging were used as treatment conjugates. The indicated conjugate was administered intravenously at 1 mg/kg 3 times per week over 2 weeks. IVIS imaging was repeatedly performed to follow tumor progression, and tumor tissue from treated HCC mice was collected for histological examination and RNA extraction after administration.

[4] = male ICR mice (n = 3), 5 mg/kg i.v.

## COc1cc2cc(c1Cl)N(C)C(=O)CC(OC(=O)C(C)N(C)C(=O)CCSC(=O)c1ccc(CN(CCOCCOCCNC(=O)c3ccc(CN(CCCCOc4cc(CN(Cc5ccccn5)Cc5ccccn5)cc(CN(Cc5ccccn5)Cc5ccccn5)c4)C(=O)C4(c5ccc(Cl)cc5)CCCCC4)cc3)C(=O)C3(c4ccc(Cl)cc4)CCCCC3)cc1)C1(C)OC1C(C)C1CC(O)(NC(=O)O1)C(OC)C=CC=C(C)C2.O=[N+]([O-])[O-].O=[N+]([O-])[O-].O=[N+]([O-])[O-].O=[N+]([O-])[O-].[Zn+2].[Zn+2] (centres unmarked) [Zn8_DM1]
[1]
  cleavage of the maytansinoid after incubation with plasma: No cleavage
[2]; [4]
  AUC (0–24 h), intact conjugate: Intact Conjugate: 161,538 ng/mL·h
  CL: 0.5 mL/min/kg
  Vss: 0.6 L/kg
[2]; male ICR mice (n = 3), 5 mg/kg i.v. of the conjugate
  AUC (0–24 h), released payload (DM1 or DM4): DM1: 500 ng/mL·h
[2]; within 24 h in circulation, 5 mg/kg i.v.
  AUC ratio between intact conjugate and released payload: large AUC ratio
[3]; 1 mg/kg i.v. twice weekly for 2 weeks, tumors 200–250 mm^3
  anti-HCC1806 tumor growth activity: significant activities; also recorded: shrinkage of HCC1806 tumor growth
[3]; 2 mg/kg per week for two weeks, tumors ~900 mm^3
  effect on large HCC1806 tumors: could readily arrest or shrink the growth of larger tumors
